The record followed here is paper PMC8833195.

Common to all, as to assay: SEC
The target of assay [1] is HA ectodomain of H1N1 A/California/07/2009 with K51I + E103I (influenza A virus H1N1 A/California/07/2009).
Assay [2] deals with repaired and stabilized HA of H3N2 A/Brisbane/10/2007 (P194L in HA1) (influenza A virus H3N2 A/Brisbane/10/2007).
The target of assay [3] is repaired and stabilized HA of H3N2 A/Singapore/INFIMH/16/0019/2016 (P194L in HA1) (influenza A virus H3N2 A/Singapore/INFIMH/16/0019/2016).

Usually stoichiometry N stands for a count of units in the complex or per binding partner. “HA ectodomain of H1N1 A/California/07/2009 with K51I + E103I (domain or fragment)”: the stoichiometry N in assay [1] is 3.

Take “repaired and stabilized HA of H3N2 A/Brisbane/10/2007 (P194L in HA1) (domain or fragment)”: the stoichiometry N in assay [2] was 3.

“repaired and stabilized HA of H3N2 A/Singapore/INFIMH/16/0019/2016 (P194L in HA1) (domain or fragment)” displayed a stoichiometry N in assay [3] of 3.
